Reference: the supplement of paper PMC10065799, “High-throughput profiling of sequence recognition by tyrosine kinases and SH2 domains using bacterial peptide display” (eLife, 2023)

Tests used:
Grb2 SH2 = Grb2 SH2 (UniProt P62993); experiment: SH2 binding enrichment of the phosphorylated peptide, bacterial display (enrichment ratio); higher = better substrate or ligand; peptides without Tyr show the background
SHP2-C SH2 = experiment: as above
c-Src SH2 = experiment: as above
c-Abl (mouse) = experiment: phosphorylation enrichment, bacterial display (enrichment ratio); higher = better substrate or ligand; peptides without Tyr show the background
AncSZ = experiment: as above
Jak2 = Jak2 (UniProt O60674); experiment: as above
FGFR3 = FGFR3 (UniProt P22607); experiment: as above
FGFR3, sequence (P22607 whole entry, looked up): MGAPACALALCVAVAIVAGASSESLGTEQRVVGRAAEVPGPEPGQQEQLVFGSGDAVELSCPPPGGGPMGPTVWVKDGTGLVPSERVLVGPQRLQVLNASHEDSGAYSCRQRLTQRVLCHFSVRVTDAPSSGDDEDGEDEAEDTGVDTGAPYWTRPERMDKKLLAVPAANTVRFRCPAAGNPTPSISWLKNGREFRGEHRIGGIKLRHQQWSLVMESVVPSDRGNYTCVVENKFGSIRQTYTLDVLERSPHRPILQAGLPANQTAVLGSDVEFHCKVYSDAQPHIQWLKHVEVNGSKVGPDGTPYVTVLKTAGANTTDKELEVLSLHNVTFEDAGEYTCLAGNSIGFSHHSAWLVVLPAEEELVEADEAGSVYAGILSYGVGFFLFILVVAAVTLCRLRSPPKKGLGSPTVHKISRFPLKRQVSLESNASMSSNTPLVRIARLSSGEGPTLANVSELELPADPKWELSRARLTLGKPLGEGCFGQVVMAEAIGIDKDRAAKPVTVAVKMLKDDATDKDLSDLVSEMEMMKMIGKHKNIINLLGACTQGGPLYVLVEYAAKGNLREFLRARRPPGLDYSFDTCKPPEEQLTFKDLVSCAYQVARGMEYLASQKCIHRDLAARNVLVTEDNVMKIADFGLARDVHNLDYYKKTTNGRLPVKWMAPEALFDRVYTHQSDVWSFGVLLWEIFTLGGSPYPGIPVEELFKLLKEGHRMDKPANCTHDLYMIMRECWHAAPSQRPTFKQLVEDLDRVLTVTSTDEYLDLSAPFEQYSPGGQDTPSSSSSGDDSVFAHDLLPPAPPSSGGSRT

EPHB1 = EPHB1 (UniProt P54762); experiment: as above
EPHB1, sequence (P54762 whole entry, looked up): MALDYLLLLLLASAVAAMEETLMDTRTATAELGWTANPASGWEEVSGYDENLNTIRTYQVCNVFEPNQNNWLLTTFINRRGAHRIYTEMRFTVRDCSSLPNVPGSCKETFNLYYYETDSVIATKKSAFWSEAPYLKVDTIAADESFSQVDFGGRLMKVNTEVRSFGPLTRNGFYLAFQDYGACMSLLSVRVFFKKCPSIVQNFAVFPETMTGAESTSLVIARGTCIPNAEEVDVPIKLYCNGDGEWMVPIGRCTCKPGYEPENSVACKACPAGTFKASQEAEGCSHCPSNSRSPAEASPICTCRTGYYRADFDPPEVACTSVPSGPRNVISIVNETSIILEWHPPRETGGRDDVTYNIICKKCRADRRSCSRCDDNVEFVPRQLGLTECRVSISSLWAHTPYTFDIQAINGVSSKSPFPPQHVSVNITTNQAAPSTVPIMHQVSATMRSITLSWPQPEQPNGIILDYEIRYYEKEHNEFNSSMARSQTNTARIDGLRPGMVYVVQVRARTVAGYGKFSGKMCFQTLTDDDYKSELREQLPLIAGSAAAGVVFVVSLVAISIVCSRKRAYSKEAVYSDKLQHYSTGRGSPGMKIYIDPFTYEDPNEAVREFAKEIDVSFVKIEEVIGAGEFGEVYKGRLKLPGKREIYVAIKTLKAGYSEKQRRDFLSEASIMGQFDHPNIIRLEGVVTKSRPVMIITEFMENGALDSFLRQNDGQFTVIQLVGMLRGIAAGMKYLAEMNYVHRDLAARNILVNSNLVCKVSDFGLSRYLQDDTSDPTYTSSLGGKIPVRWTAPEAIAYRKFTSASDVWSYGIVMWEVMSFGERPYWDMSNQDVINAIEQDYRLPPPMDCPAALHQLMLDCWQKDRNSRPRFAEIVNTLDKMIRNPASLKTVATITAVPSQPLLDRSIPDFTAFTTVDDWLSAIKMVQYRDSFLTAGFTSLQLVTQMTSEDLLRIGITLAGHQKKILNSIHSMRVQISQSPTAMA

Fer (mouse) = experiment: as above
Hck = Hck (UniProt P08631); experiment: as above
Hck, sequence (P08631 whole entry, looked up): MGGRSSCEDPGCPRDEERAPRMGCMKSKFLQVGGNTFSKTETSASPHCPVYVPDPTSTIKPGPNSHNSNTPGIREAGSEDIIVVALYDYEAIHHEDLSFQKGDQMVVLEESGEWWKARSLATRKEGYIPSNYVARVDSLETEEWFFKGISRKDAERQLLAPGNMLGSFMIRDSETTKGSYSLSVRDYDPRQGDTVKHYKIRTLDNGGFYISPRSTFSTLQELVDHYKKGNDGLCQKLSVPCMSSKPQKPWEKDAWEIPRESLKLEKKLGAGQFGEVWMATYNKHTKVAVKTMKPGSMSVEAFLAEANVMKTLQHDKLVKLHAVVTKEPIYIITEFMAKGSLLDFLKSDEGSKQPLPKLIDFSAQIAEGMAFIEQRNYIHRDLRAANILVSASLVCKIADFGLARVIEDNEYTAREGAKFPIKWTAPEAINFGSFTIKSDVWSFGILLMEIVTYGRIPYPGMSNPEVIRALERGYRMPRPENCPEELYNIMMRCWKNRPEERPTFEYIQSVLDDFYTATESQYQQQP

Fyn = Fyn (UniProt P06241); experiment: as above
Fyn, sequence (P06241 whole entry, looked up): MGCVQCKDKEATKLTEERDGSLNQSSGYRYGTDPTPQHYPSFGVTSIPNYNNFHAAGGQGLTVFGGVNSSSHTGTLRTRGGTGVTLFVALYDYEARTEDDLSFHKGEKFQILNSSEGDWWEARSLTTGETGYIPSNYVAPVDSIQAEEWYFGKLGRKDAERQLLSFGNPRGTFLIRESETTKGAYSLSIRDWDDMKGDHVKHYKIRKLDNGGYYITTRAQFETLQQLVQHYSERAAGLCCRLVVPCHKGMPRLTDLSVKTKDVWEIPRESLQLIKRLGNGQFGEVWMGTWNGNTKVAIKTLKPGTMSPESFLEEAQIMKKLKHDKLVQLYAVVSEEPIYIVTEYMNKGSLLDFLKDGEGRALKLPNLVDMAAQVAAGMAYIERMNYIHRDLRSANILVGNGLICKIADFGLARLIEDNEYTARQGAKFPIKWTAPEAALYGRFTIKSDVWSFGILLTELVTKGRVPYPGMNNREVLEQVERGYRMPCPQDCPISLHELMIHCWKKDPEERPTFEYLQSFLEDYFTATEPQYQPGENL

MERTK = MERTK (UniProt Q12866); experiment: as above
FGFR1 = FGFR1 (UniProt P11362); experiment: as above
FGFR1, sequence (P11362 whole entry, looked up): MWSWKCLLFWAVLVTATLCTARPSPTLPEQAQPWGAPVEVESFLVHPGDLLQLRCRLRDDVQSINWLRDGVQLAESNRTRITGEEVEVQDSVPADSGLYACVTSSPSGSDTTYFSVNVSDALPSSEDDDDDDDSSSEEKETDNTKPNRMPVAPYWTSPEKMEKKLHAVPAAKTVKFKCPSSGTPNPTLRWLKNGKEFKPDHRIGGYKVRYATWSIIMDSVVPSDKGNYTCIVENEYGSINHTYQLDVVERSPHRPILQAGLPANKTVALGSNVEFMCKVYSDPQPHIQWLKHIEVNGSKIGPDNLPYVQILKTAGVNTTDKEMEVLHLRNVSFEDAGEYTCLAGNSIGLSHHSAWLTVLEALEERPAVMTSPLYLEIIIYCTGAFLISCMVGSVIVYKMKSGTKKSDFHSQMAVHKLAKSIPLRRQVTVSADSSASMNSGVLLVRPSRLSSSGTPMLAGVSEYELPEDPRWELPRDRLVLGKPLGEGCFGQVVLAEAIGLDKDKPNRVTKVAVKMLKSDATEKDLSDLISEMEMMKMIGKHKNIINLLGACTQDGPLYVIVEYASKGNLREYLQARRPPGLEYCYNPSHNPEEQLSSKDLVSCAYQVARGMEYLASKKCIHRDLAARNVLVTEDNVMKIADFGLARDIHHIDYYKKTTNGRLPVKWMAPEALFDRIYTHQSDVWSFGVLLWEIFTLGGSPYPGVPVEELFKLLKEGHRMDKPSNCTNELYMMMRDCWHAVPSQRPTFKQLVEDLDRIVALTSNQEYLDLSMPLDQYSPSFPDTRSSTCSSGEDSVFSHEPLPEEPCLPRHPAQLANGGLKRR

EPHB2 = EPHB2 (UniProt P29323); experiment: as above
Fes = Fes (UniProt P07332); experiment: as above
Fes, sequence (P07332 whole entry, looked up): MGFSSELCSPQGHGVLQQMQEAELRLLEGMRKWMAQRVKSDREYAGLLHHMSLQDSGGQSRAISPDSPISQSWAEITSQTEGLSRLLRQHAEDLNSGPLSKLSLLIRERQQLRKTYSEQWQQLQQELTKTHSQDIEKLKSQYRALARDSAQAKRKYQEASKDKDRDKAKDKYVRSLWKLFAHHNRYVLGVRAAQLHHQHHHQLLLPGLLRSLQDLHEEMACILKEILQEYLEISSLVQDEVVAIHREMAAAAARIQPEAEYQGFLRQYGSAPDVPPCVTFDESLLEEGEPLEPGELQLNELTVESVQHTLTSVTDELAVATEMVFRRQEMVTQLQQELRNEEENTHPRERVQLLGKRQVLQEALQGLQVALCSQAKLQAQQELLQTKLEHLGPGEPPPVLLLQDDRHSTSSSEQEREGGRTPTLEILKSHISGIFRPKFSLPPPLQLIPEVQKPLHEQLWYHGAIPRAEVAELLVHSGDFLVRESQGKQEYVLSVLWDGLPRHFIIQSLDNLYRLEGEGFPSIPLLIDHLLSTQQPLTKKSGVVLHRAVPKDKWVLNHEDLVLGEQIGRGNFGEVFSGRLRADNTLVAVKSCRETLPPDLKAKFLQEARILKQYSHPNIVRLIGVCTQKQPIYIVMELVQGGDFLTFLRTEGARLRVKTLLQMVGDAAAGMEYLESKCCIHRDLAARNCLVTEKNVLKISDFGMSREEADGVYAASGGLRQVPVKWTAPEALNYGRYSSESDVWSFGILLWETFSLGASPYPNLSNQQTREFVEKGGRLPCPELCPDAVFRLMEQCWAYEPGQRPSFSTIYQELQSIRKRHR

c-Src = experiment: as above
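Throughout, for SH2 binding enrichment of the phosphorylated peptide, bacterial display: peptide library displayed on the E. coli surface as eCPX fusions, selected cells deep-sequenced, score is each peptide's frequency after selection divided by its frequency in the input.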
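Throughout, for phosphorylation enrichment, bacterial display: 11-residue human phosphosite peptides and single-mutation variants displayed on the E. coli surface, counted by deep sequencing, each peptide's frequency after selection divided by its frequency in the unselected input library; frequency after pTyr selection over input frequency; kinase dosed for 20-30% of maximal phosphorylation in three min.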

Grb2 SH2, sequence (P62993 whole entry, looked up): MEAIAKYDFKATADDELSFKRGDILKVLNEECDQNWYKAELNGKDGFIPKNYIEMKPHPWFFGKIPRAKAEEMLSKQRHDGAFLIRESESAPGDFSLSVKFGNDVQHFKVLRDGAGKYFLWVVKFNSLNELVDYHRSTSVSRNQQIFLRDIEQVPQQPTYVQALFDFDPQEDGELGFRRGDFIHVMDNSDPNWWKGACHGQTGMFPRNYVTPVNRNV

Row | Sequence | SH2 binding enrichment (Grb2 SH2) | SH2 binding enrichment (SHP2-C SH2) | SH2 binding enrichment (c-Src SH2) | phosphorylation enrichment (c-Abl (mouse)) | phosphorylation enrichment (AncSZ) | phosphorylation enrichment (Jak2) | phosphorylation enrichment (FGFR3) | phosphorylation enrichment (EPHB1) | phosphorylation enrichment (Fer (mouse)) | phosphorylation enrichment (Hck) | phosphorylation enrichment (Fyn) | phosphorylation enrichment (MERTK) | phosphorylation enrichment (FGFR1) | phosphorylation enrichment (EPHB2) | phosphorylation enrichment (Fes) | phosphorylation enrichment (c-Src)
1 | NRVEIYEKTVE [CYFIP1_Y108] | 0.803 | 0.85 | 0.678 | 0.919 | 1.07 | 1.27 | 0.696 | 0.713 | 0.582 | 0.628 | 0.511 | 0.5 | 0.523 | 0.654 | 1.18 | 0.599
2 | GFILMYDITNK [RAB3C_Y110_E115K] | 0.944 | 0.727 | 0.5 | 1.21 | 1.59 | 1.83 | 1.17 | 1.15 | 0.724 | 0.591 | 0.529 | 0.835 | 0.617 | 1.14 | 2.04 | 0.575
3 | LAGRYYALKSM [CKB_Y174] | 1.21 | 2.14 | 1.67 | 0.594 | 1.24 | 1.29 | 0.957 | 0.541 | 0.545 | 0.783 | 0.668 | 3.22 | 1.45 | 0.417 | 0.852 | 0.67
4 | CTTIHYHYMCN [TP53_Y234_N235H] | 1.33 | 5.53 | 2.73 | 0.661 | 0.964 | 0.668 | 0.667 | 0.551 | 0.523 | 0.551 | 0.561 | 0.446 | 0.568 | 0.425 | 0.963 | 0.414
5 | AVDMTYDGHPV [FLNB_Y1020_V1018M] | 0.877 | 0.662 | 0.461 | 0.768 | 1.19 | 0.765 | 0.737 | 1.67 | 0.89 | 3.87 | 3.3 | 0.593 | 0.576 | 4.79 | 0.926 | 3.61
6 | ILIFHYAKGQP [MPZ_Y82_S78L] | 1.47 | 1.27 | 1.1 | 0.904 | 1.32 | 1.01 | 0.85 | 0.753 | 0.819 | 0.674 | 0.504 | 0.475 | 0.612 | 0.705 | 1.37 | 0.508
7 | IQKWEYVPLGT [FAH_Y244_P249T] | 0.837 | 0.497 | 0.817 | 0.564 | 0.954 | 1.23 | 0.723 | 0.768 | 0.416 | 0.428 | 0.475 | 0.328 | 1.06 | 0.532 | 0.866 | 0.384
8 | LEQRPYRRGSE [KCNJ12_Y427_E430G] | 0.891 | 0.733 | 0.419 | 0.594 | 0.651 | 0.576 | 0.511 | 0.348 | 0.447 | 0.523 | 0.424 | 0.442 | 0.365 | 0.478 | 0.683 | 0.399
9 | GKGGSYSQAAS [HLA-B_Y344_C349S] | 0.609 | 0.785 | 0.434 | 0.622 | 0.548 | 0.651 | 0.52 | 0.47 | 0.441 | 0.462 | 0.362 | 0.493 | 0.515 | 0.41 | 0.819 | 0.529
10 | IIQRAYRRHLL [SCN1A_Y1926] | 0.769 | 0.381 | 0.439 | 0.552 | 0.845 | 0.491 | 0.525 | 0.479 | 0.497 | 0.576 | 0.509 | 0.608 | 0.499 | 0.433 | 0.619 | 0.584
11 | PTDCVYVMPTV [MYO7A_Y1668_S1666C] | 1.01 | 0.716 | 0.642 | 7.37 | 5.31 | 1.1 | 3.92 | 3.34 | 1.08 | 4.49 | 8.41 | 6.63 | 5 | 2.4 | 1.06 | 4.95
12 | SRNSKYNAEST [PSEN1_Y315_K311R] | 0.774 | 0.522 | 0.386 | 0.497 | 0.512 | 0.489 | 0.376 | 0.328 | 0.347 | 0.323 | 0.366 | 0.464 | 0.378 | 0.46 | 0.441 | 0.378
13 | VNFQPYRKHKF [TEX37_Y28_D24N_YF] | 0.693 | 0.528 | 0.454 | 0.542 | 0.546 | 0.408 | 0.371 | 0.34 | 0.373 | 0.459 | 0.439 | 0.43 | 0.365 | 0.386 | 0.545 | 0.431
14 | KGYRGYSYDDI [TMEM230_Y110] | 0.963 | 0.652 | 3.92 | 0.547 | 0.756 | 0.607 | 0.509 | 0.407 | 0.393 | 0.395 | 0.425 | 0.417 | 0.485 | 0.424 | 0.774 | 0.434
15 | STDDGCIDLQF [TMEM230_Y29_Y29C] | 0.939 | 0.815 | 0.76 | 0.668 | 1.14 | 0.979 | 0.797 | 0.492 | 0.55 | 0.665 | 0.56 | 0.646 | 0.613 | 0.636 | 1.13 | 0.503
